Experimental data published in patent publication US20230406885A1, “CYCLIC PEPTIDES FOR TRAPPING INTERLEUKIN-1 BETA” (MERCK SHARP & DOHME LLC, priority 2022, published 2023).
*1 amine or outer side, *2 acyl side, *3 side chain or, on linkers, in order; H or OH if unused. [ ]: non-standard residue; d: D form. TyrEtNAc = L-tyrosine O-ethyl acetamide, (S)-3-(4-(2-acetamidoethoxy)phenyl)-2-aminopropanoic acid, CC(=O)NCCOc1ccc(C[C@H](N[*:1])C(=O)[*:2])cc1; dDabMe3 = [(R)-3-amino-3-carboxypropyl]-trimethylazanium, C[N+](C)(C)CC[C@@H](N[*:1])C(=O)[*:2]; Pro(trans-4-NH2) = O=C([C@@H]1C[C@@H](N[*:3])CN1[*:1])[*:2]; Bip(4'-COOH) = N[C@@H](Cc1ccc(-c2ccc(C(=O)O)cc2)cc1)C(=O)O; 1Nal(3S-Me) = C[C@@H](c1cccc2ccccc12)[C@H](N)C(=O)O; Ala(indolin-1-yl) = N[C@@H](CN1CCc2ccccc21)C(=O)O; Trp(6-Cl) = N[C@@H](Cc1c[nH]c2cc(Cl)ccc12)C(=O)O; Phe(4-COOH) = N[C@@H](Cc1ccc(C(=O)O)cc1)C(=O)O; Trp(6-F) = N[C@@H](Cc1c[nH]c2cc(F)ccc12)C(=O)O; Trp(7-aza) = N[C@@H](Cc1c[nH]c2ncccc12)C(=O)O; hTyr = N[C@@H](CCc1ccc(O)cc1)C(=O)O; hCha = N[C@@H](CCC1CCCCC1)C(=O)O; dDab = NCC[C@@H](N)C(=O)O; dNMeA = CN[C@H](C)C(=O)O

B1: SEQ ID NO: 211 (Example No. 211) (peptide)
peptide: cyclo([TyrEtNAc][Trp(6-F)][Phe(4-COOH)]G[Pro(trans-4-NH2)][1Nal(3S-Me)]D[dNMeA]G[Bip(4'-COOH)][Ala(indolin-1-yl)]G[dDab][hTyr])
SMILES: CC(=O)NCCOc1ccc(C[C@@H]2NC(=O)[C@H](CCc3ccc(O)cc3)NC(=O)[C@@H](CCN)NC(=O)CNC(=O)[C@H](CN3CCc4ccccc43)NC(=O)[C@H](Cc3ccc(-c4ccc(C(=O)O)cc4)cc3)NC(=O)CNC(=O)[C@@H](C)N(C)C(=O)[C@H](CC(=O)O)NC(=O)[C@H]([C@@H](C)c3cccc4ccccc34)NC(=O)[C@@H]3C[C@@H](N)CN3C(=O)CNC(=O)[C@H](Cc3ccc(C(=O)O)cc3)NC(=O)[C@H](Cc3c[nH]c4cc(F)ccc34)NC2=O)cc1
B2: SEQ ID NO: 213 (Example No. 213) (peptide)
peptide: cyclo([TyrEtNAc][Trp(6-F)][Phe(4-COOH)]G[Pro(trans-4-NH2)][1Nal(3S-Me)]D[dNMeA]G[Bip(4'-COOH)][Trp(7-aza)]S[dDabMe3][hCha])
SMILES: CC(=O)NCCOc1ccc(C[C@@H]2NC(=O)[C@H](CCC3CCCCC3)NC(=O)[C@@H](CC[N+](C)(C)C)NC(=O)[C@H](CO)NC(=O)[C@H](Cc3c[nH]c4ncccc34)NC(=O)[C@H](Cc3ccc(-c4ccc(C(=O)O)cc4)cc3)NC(=O)CNC(=O)[C@@H](C)N(C)C(=O)[C@H](CC(=O)O)NC(=O)[C@H]([C@@H](C)c3cccc4ccccc34)NC(=O)[C@@H]3C[C@@H](N)CN3C(=O)CNC(=O)[C@H](Cc3ccc(C(=O)O)cc3)NC(=O)[C@H](Cc3c[nH]c4cc(F)ccc34)NC2=O)cc1
B3: SEQ ID NO: 214 (Example No. 214) (peptide)
peptide: cyclo([TyrEtNAc]W[Phe(4-COOH)]G[Pro(trans-4-NH2)][1Nal(3S-Me)]D[dNMeA]G[Bip(4'-COOH)][Trp(7-aza)]G[dDab][hCha])
SMILES: CC(=O)NCCOc1ccc(C[C@@H]2NC(=O)[C@H](CCC3CCCCC3)NC(=O)[C@@H](CCN)NC(=O)CNC(=O)[C@H](Cc3c[nH]c4ncccc34)NC(=O)[C@H](Cc3ccc(-c4ccc(C(=O)O)cc4)cc3)NC(=O)CNC(=O)[C@@H](C)N(C)C(=O)[C@H](CC(=O)O)NC(=O)[C@H]([C@@H](C)c3cccc4ccccc34)NC(=O)[C@@H]3C[C@@H](N)CN3C(=O)CNC(=O)[C@H](Cc3ccc(C(=O)O)cc3)NC(=O)[C@H](Cc3c[nH]c4ccccc34)NC2=O)cc1
B4: SEQ ID NO: 215 (Example No. 215) (peptide)
peptide: cyclo([TyrEtNAc]W[Phe(4-COOH)]G[Pro(trans-4-NH2)][1Nal(3S-Me)]D[dNMeA]G[Bip(4'-COOH)][Trp(7-aza)]G[dDab][hTyr])
SMILES: CC(=O)NCCOc1ccc(C[C@@H]2NC(=O)[C@H](CCc3ccc(O)cc3)NC(=O)[C@@H](CCN)NC(=O)CNC(=O)[C@H](Cc3c[nH]c4ncccc34)NC(=O)[C@H](Cc3ccc(-c4ccc(C(=O)O)cc4)cc3)NC(=O)CNC(=O)[C@@H](C)N(C)C(=O)[C@H](CC(=O)O)NC(=O)[C@H]([C@@H](C)c3cccc4ccccc34)NC(=O)[C@@H]3C[C@@H](N)CN3C(=O)CNC(=O)[C@H](Cc3ccc(C(=O)O)cc3)NC(=O)[C@H](Cc3c[nH]c4ccccc34)NC2=O)cc1
B5: SEQ ID NO: 210 (Example No. 210) (peptide)
peptide: cyclo([TyrEtNAc][Trp(6-Cl)][Phe(4-COOH)]G[Pro(trans-4-NH2)][1Nal(3S-Me)]D[dNMeA]G[Bip(4'-COOH)][Trp(7-aza)]S[dDab][hCha])
SMILES: CC(=O)NCCOc1ccc(C[C@@H]2NC(=O)[C@H](CCC3CCCCC3)NC(=O)[C@@H](CCN)NC(=O)[C@H](CO)NC(=O)[C@H](Cc3c[nH]c4ncccc34)NC(=O)[C@H](Cc3ccc(-c4ccc(C(=O)O)cc4)cc3)NC(=O)CNC(=O)[C@@H](C)N(C)C(=O)[C@H](CC(=O)O)NC(=O)[C@H]([C@@H](C)c3cccc4ccccc34)NC(=O)[C@@H]3C[C@@H](N)CN3C(=O)CNC(=O)[C@H](Cc3ccc(C(=O)O)cc3)NC(=O)[C@H](Cc3c[nH]c4cc(Cl)ccc34)NC2=O)cc1
B6: SEQ ID NO: 212 (Example No. 212) (peptide)
peptide: cyclo([TyrEtNAc][Trp(6-F)][Phe(4-COOH)]G[Pro(trans-4-NH2)][1Nal(3S-Me)]D[dNMeA]G[Bip(4'-COOH)][Trp(7-aza)]S[dDab][hCha])
SMILES: CC(=O)NCCOc1ccc(C[C@@H]2NC(=O)[C@H](CCC3CCCCC3)NC(=O)[C@@H](CCN)NC(=O)[C@H](CO)NC(=O)[C@H](Cc3c[nH]c4ncccc34)NC(=O)[C@H](Cc3ccc(-c4ccc(C(=O)O)cc4)cc3)NC(=O)CNC(=O)[C@@H](C)N(C)C(=O)[C@H](CC(=O)O)NC(=O)[C@H]([C@@H](C)c3cccc4ccccc34)NC(=O)[C@@H]3C[C@@H](N)CN3C(=O)CNC(=O)[C@H](Cc3ccc(C(=O)O)cc3)NC(=O)[C@H](Cc3c[nH]c4cc(F)ccc34)NC2=O)cc1

The binders below were run against Recombinant human IL-1β (BioLegend 579404) (human, UniProt P01584 117-269) (assay: cell-based or functional assay).
With B1 the “MRC5 IC50” value was 0.027 nM.
B2 was tested, and the “MRC5 IC50” value was 0.018 nM.
With B3 the “MRC5 IC50” value was 0.02 nM.
With B4 the “MRC5 IC50” value was 0.024 nM.
In the case of B5, the “MRC5 IC50” value is reported as 0.02 nM.
B6 was tested, and the “MRC5 IC50” value was 0.025 nM.
